Abundance fitness data for 167 variants are collected here from the Human Domainome abundance scans (Beltran et al. 2025).

B1: Membrane-associated guanylate kinase, WW and PDZ domain-containing protein 1, residues 352 to 401; numbered along this chain, Q96QZ7 (parent)
chain: TEELDSELELPAGWEKIEDPVYGIYYVDHINRKTQYENPVLEAKRKKQLE

± gives the uncertainty stated by the source.

Variants of B1 are the subject of the data set. Kind of data set: abundance fitness (aPCA) (normalised: wild type 0, dead -1); higher = more abundant; growth selection in yeast, the domain comes from the species named. To be noted: Homo sapiens.
As for P11V, the abundance fitness is -0.671 ± 0.083.

As for P11Q, the abundance fitness is -0.38 ± 0.059.

As for P11M, the abundance fitness was -0.185 ± 0.089.

Take P11E: the abundance fitness is -0.377 ± 0.088.

As for P11S, the abundance fitness is -0.417 ± 0.039.

Consider P11D, for which the abundance fitness is -0.382 ± 0.11.

On to P11I, for which the abundance fitness is -0.424 ± 0.12.

As to P11T, the abundance fitness is -0.194 ± 0.082.

Turning to P11C, the abundance fitness is -0.249 ± 0.095.

In the case of P11F, the abundance fitness was -0.515 ± 0.072.

For P11G, the abundance fitness was -0.268 ± 0.043.

In the case of P11W, the abundance fitness was -0.519 ± 0.088.

For P11K, the abundance fitness is -0.153 ± 0.092.

In the case of P11N, the abundance fitness was -0.728 ± 0.14.

Regarding P11A, the abundance fitness is -0.367 ± 0.045.

On to P11R, for which the abundance fitness is -0.494 ± 0.047.

In the case of P11L, the abundance fitness is -0.35 ± 0.058.

With P11H, the abundance fitness is -0.554 ± 0.17.

Take S6Q: the abundance fitness was -0.046 ± 0.053.

For the variant S6F, the abundance fitness is -0.231 ± 0.047.

As for S6P, the abundance fitness was -0.358 ± 0.1.

For the variant S6M, the abundance fitness is -0.179 ± 0.1.

Take S6R: the abundance fitness worked out at 0.103 ± 0.054.

Take S6I: the abundance fitness was -0.184 ± 0.083.

With S6C, the abundance fitness is -0.447 ± 0.12.

Take S6N: the abundance fitness is -0.171 ± 0.13.

Regarding S6D, the abundance fitness is -0.141 ± 0.055.

S6G: the abundance fitness is -0.041 ± 0.06.

In the case of S6L, the abundance fitness was -0.073 ± 0.062.

As to S6K, the abundance fitness is -0.148 ± 0.1.

Take S6T: the abundance fitness stood at 0.142 ± 0.091.

Consider S6V, for which the abundance fitness came to 0.062 ± 0.054.

In the case of S6W, the abundance fitness is -0.44 ± 0.1.

Take S6A: the abundance fitness is -0.033 ± 0.07.

Turning to S6E, the abundance fitness was -0.183 ± 0.085.

As to S6H, the abundance fitness was -0.203 ± 0.073.

On to L10K, for which the abundance fitness was -0.668 ± 0.2.

On to L10Y, for which the abundance fitness was -0.571 ± 0.23.

Regarding L10N, the abundance fitness was -0.574 ± 0.099.

L10E: the abundance fitness is -0.654 ± 0.081.

For the variant L10H, the abundance fitness is -0.751 ± 0.26.

As for L10R, the abundance fitness is -0.626 ± 0.066.

On to L10S, for which the abundance fitness was -0.382 ± 0.069.

Take L10P: the abundance fitness is -0.385 ± 0.1.

In the case of L10G, the abundance fitness is -0.574 ± 0.055.

As for L10Q, the abundance fitness is -0.296 ± 0.046.

On to L10D, for which the abundance fitness is -0.705 ± 0.16.

Regarding L10A, the abundance fitness was -0.322 ± 0.072.

For the variant L10T, the abundance fitness is -0.608 ± 0.096.

With L10W, the abundance fitness is -0.553 ± 0.068.

For L10I, the abundance fitness is -0.148 ± 0.15.

Take L10M: the abundance fitness is -0.286 ± 0.076.

As to L10C, the abundance fitness was -0.37 ± 0.1.

With L10F, the abundance fitness was -0.345 ± 0.095.

Consider L10V, for which the abundance fitness was -0.221 ± 0.054.

D5F: the abundance fitness is -0.006 ± 0.17.

Consider D5Q, for which the abundance fitness is -0.128 ± 0.05.

In the case of D5H, the abundance fitness was -0.192 ± 0.082.

In the case of D5V, the abundance fitness stood at 0.001 ± 0.044.

As to D5A, the abundance fitness turned out to be 0.047 ± 0.071.

Take D5K: the abundance fitness is 0.086 ± 0.088.

Take D5I: the abundance fitness amounted to 0 ± 0.057.

On to D5T, for which the abundance fitness came out at 0.059 ± 0.053.

Take D5C: the abundance fitness is 0.032 ± 0.062.

Consider D5W, for which the abundance fitness was -0.303 ± 0.072.

On to D5M, for which the abundance fitness is -0.421 ± 0.11.

Turning to D5P, the abundance fitness worked out at 0.023 ± 0.071.

With E7L, the abundance fitness is -0.057 ± 0.071.

In the case of E7S, the abundance fitness is -0.153 ± 0.077.

As for E7Q, the abundance fitness is -0.404 ± 0.11.

Turning to E7T, the abundance fitness is 0.053 ± 0.071.

As for E7R, the abundance fitness is -0.037 ± 0.044.

For E7Y, the abundance fitness is -0.399 ± 0.12.

Regarding E7F, the abundance fitness was -0.236 ± 0.068.

E7A: the abundance fitness amounted to 0.056 ± 0.062.

For the variant E7K, the abundance fitness turned out to be 0.111 ± 0.1.

For E7M, the abundance fitness is -0.046 ± 0.098.

Take E7G: the abundance fitness was determined as 0.05 ± 0.045.

In the case of E7H, the abundance fitness is -0.217 ± 0.072.

With E7P, the abundance fitness is -0.217 ± 0.091.

As to E7W, the abundance fitness was -0.181 ± 0.094.

For the variant E7N, the abundance fitness was -0.228 ± 0.14.

Turning to E7V, the abundance fitness turned out to be 0.03 ± 0.044.

Turning to E7I, the abundance fitness was -0.314 ± 0.12.

Regarding E7D, the abundance fitness is -0.039 ± 0.072.

Consider L4E, for which the abundance fitness is -0.239 ± 0.044.

As to L4W, the abundance fitness is -0.237 ± 0.073.

As to L4N, the abundance fitness was -0.333 ± 0.14.

In the case of L4Q, the abundance fitness is -0.067 ± 0.081.

In the case of L4R, the abundance fitness turned out to be 0.103 ± 0.058.

As for L4G, the abundance fitness was -0.102 ± 0.059.

Regarding L4S, the abundance fitness was -0.037 ± 0.06.

Regarding L4F, the abundance fitness was -0.051 ± 0.097.

Turning to L4D, the abundance fitness is -0.682 ± 0.14.

With L4A, the abundance fitness is -0.101 ± 0.075.

In the case of L4T, the abundance fitness was -0.021 ± 0.082.

For L4I, the abundance fitness was found to be 0.349 ± 0.11.

With L4K, the abundance fitness is 0.019 ± 0.059.

For the variant L4C, the abundance fitness was -0.593 ± 0.071.

Consider L4Y, for which the abundance fitness was -0.444 ± 0.29.

Turning to L4V, the abundance fitness is -0.064 ± 0.064.

L4H: the abundance fitness was found to be 0.202 ± 0.095.

Take E9D: the abundance fitness is -0.017 ± 0.1.

In the case of E9K, the abundance fitness is -0.078 ± 0.057.

In the case of E9L, the abundance fitness is -0.223 ± 0.058.

Turning to E9S, the abundance fitness was -0.103 ± 0.045.

With E9M, the abundance fitness was -0.079 ± 0.073.

Consider E9W, for which the abundance fitness is -0.497 ± 0.089.

In the case of E9V, the abundance fitness is -0.126 ± 0.061.

As for E9I, the abundance fitness is -0.312 ± 0.13.

In the case of E9T, the abundance fitness is -0.102 ± 0.051.

In the case of E9R, the abundance fitness was -0.179 ± 0.044.

Turning to E9F, the abundance fitness was -0.441 ± 0.059.

For E9A, the abundance fitness turned out to be 0.105 ± 0.044.

Regarding E9C, the abundance fitness was -0.149 ± 0.072.

Take E9H: the abundance fitness is -0.095 ± 0.1.

Take E9Q: the abundance fitness is -0.137 ± 0.1.

Take E3P: the abundance fitness was -0.744 ± 0.33.

Take E3Q: the abundance fitness was -0.226 ± 0.41.

As to E3A, the abundance fitness was -0.425 ± 0.34.

Turning to A12H, the abundance fitness amounted to 0.07 ± 0.1.

Consider A12G, for which the abundance fitness was -0.073 ± 0.057.

For the variant A12W, the abundance fitness was -0.104 ± 0.048.

A12Y: the abundance fitness is -0.38 ± 0.11.

Take A12K: the abundance fitness was -0.113 ± 0.11.

With A12C, the abundance fitness turned out to be 0.12 ± 0.085.

With A12T, the abundance fitness is -0.145 ± 0.086.

For A12S, the abundance fitness was -0.038 ± 0.054.

Turning to A12E, the abundance fitness was determined as 0.129 ± 0.052.

As for A12Q, the abundance fitness is -0.237 ± 0.096.

Consider A12R, for which the abundance fitness amounted to 0.016 ± 0.041.

On to A12V, for which the abundance fitness was 0.019 ± 0.068.

As for A12F, the abundance fitness worked out at 0.107 ± 0.093.

As to A12L, the abundance fitness was -0.003 ± 0.056.

Turning to A12I, the abundance fitness turned out to be 0.02 ± 0.072.

Regarding A12D, the abundance fitness is -0.09 ± 0.12.

Regarding A12M, the abundance fitness was -0.594 ± 0.15.

As to A12P, the abundance fitness was -0.098 ± 0.073.

As for E2S, the abundance fitness was -0.191 ± 0.096.

E2T: the abundance fitness is 0.129 ± 0.1.

Take E2W: the abundance fitness was 0.113 ± 0.1.

Consider E2V, for which the abundance fitness was -0.02 ± 0.042.

For the variant E2Y, the abundance fitness was -0.403 ± 0.24.

Turning to L8I, the abundance fitness was -0.361 ± 0.11.

Turning to L8V, the abundance fitness was -0.266 ± 0.064.

Turning to L8N, the abundance fitness is -0.561 ± 0.23.

With L8M, the abundance fitness was -0.023 ± 0.078.

With L8F, the abundance fitness is -0.091 ± 0.058.

As to L8Y, the abundance fitness is -0.103 ± 0.067.

Turning to L8E, the abundance fitness is -0.2 ± 0.058.

Turning to L8D, the abundance fitness is -0.505 ± 0.046.

As to L8Q, the abundance fitness was -0.016 ± 0.046.

L8P: the abundance fitness was -0.248 ± 0.083.

With L8S, the abundance fitness was -0.22 ± 0.07.

In the case of L8A, the abundance fitness was -0.042 ± 0.049.

Regarding L8H, the abundance fitness was -0.15 ± 0.11.

In the case of L8T, the abundance fitness is -0.105 ± 0.097.

Turning to L8K, the abundance fitness came to 0.095 ± 0.11.

In the case of L8G, the abundance fitness is -0.15 ± 0.049.

Take L8W: the abundance fitness was -0.12 ± 0.07.

Regarding G13D, the abundance fitness is -0.525 ± 0.12.

Turning to G13A, the abundance fitness was -0.458 ± 0.043.

As for G13E, the abundance fitness is -0.425 ± 0.049.

For the variant G13H, the abundance fitness was -0.54 ± 0.13.

Turning to G13C, the abundance fitness was -0.339 ± 0.089.

Consider G13K, for which the abundance fitness was -0.368 ± 0.05.

In the case of G13I, the abundance fitness is -0.63 ± 0.084.
